# Test results as given in PMC7747229 (Nature, 2020).
# “And” between values parts separate entries of the source, which are not always exact repeats. Identical values can stand only once.
# B1: KAT1em (KAT1 from Arabidopsis thaliana, amino acids M1-S502) (domain or fragment)
# chain: not shown
# Molecular target: the molecule itself
# Assay: cryo-EM structure
protein,measurement,value
B1,stoichiometry N,8 and 4
